Results as given in US11306156.

Assays:
[1] = biological target: tissue factor (TF) antigen (UniProt P13726); assay: SPR, Fab captured on anti-penta His, TF injected
[2] = biological target: tissue factor (TF) antigen (UniProt P13726); assay: SPR, Fab captured on anti-penta His surface, TF as analyte, 1:1 fit

Chain of tissue factor (TF) antigen (P13726 33-251 limits assumed): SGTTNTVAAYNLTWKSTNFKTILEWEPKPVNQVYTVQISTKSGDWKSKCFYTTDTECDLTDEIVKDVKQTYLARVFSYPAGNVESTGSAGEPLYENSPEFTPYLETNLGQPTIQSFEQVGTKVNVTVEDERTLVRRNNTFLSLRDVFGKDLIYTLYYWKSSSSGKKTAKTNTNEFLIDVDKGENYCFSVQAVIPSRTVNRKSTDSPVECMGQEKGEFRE

Row | Substance | Change in KD with respect to wild type (-(log(KD design) - log(KD wt))) [1] | Kd [1] | Change in KD with respect to wild type (-(log(KD design) - log(KD wt))) [2] | Kd [2]
1 | D3H44 Fab heterodimer H L124E_L143E_K145T / L Q124K_V133G_Q160K_S176R (H1L1 Fab of LCCA Set # 9275) | -0.12 | 0.2 nM |  | 
2 | D3H44 Fab heterodimer H L124E_L143D_K145T / L Q124K_V133G_S176R_T178K (H1L1 Fab of LCCA Set # 9220, 9216) | -0.08 | 0.19 nM |  | 
3 | D3H44 Fab heterodimer H L124R_Q179K / L Q124E_V133G_S176D_T178E_T180E (H1L1 Fab of LCCA Set # 9384, 9388) | -0.15 | 0.22 nM |  | 
4 | D3H44 Fab heterodimer H L124R_D146N_Q179K / L V133G_S176D_T178E_T180E (H1L1 Fab of LCCA Set # 9359) | -0.01 | 0.16 nM |  | 
5 | D3H44 Fab heterodimer H L124R_S186K / L V133G_S176D_T178D_T180E (H1L1 Fab of LCCA Set # 9473) | -0.07 | 0.18 nM |  | 
6 | D3H44 Fab heterodimer, H1L1 of LCCA Sets # 9752 and 10552 (H1 L45P_L143E_K145T_H172R; L1 P44F_Q124R_Q160K_T178R) |  |  | -0.27 | 0.29 nM
7 | D3H44 Fab heterodimer, H1L1 of LCCA Set # 9760 (H1 Q179K; L1 Q124E_Q160E_T180E) |  |  | -0.31 | 0.32 nM
8 | D3H44 Fab heterodimer, H1L1 of LCCA Sets # 9558 and 9559 (H1 L124W_L143E_K145T_Q179E; L1 Q124K_V133A_S176T_T178R) |  |  | -0.24 | 0.27 nM

More lines, now with the values ahead:

Row | Change in KD with respect to wild type (-(log(KD design) - log(KD wt))) [1] | Kd [1] | Change in KD with respect to wild type (-(log(KD design) - log(KD wt))) [2] | Kd [2] | Substance
9 | -0.24 | 0.27 nM |  |  | D3H44 Fab heterodimer H L124E_L143D_K145M / L Q124K_V133G_Q160K_S176R (H1L1 Fab of LCCA Set # 9170)
10 | -0.26 | 0.28 nM |  |  | D3H44 Fab heterodimer H L124E_L143E_K145M / L Q124K_V133G_Q160K_S176R (H1L1 Fab of LCCA Set # 9247)
11 | -0.29 | 0.31 nM |  |  | D3H44 Fab heterodimer H L124E_L143E_K145M / L Q124K_V133G_S176R_T178R (H1L1 Fab of LCCA Set # 9270)
12 | -0.1 | 0.2 nM |  |  | D3H44 Fab heterodimer H L124R_D146N_Q179K / L Q124E_V133G_S176D_T178E_T180E (H1L1 Fab of LCCA Set # 9350, 9351)
13 | -0.17 | 0.23 nM |  |  | D3H44 Fab heterodimer H L124R_S186K / L V133G_S176D_T178E_T180E (H1L1 Fab of LCCA Set # 9489)
14 | -0.16 | 0.23 nM |  |  | D3H44 Fab heterodimer H L124R_Q179K / L V133G_S176D_T178E_T180E (H1L1 Fab of LCCA Set # 9426)
15 | 0.08 | 0.13 nM |  |  | D3H44 Fab heterodimer H L124E_H172T / L V133G_N137K_S174R_S176R (H1L1 Fab of LCCA Set # 9121)
16 |  |  | -0.05 | 0.18 nM | D3H44 Fab heterodimer, H1L1 of LCCA Set # 9817 (H1 Q39E_L143E_K145T; L1 Q38R_Q124R_Q160K_T178R)
17 |  |  | 0.03 | 0.15 nM | D3H44 Fab heterodimer, H1L1 of LCCA Set # 9819 (H1 Q39E_L143E_K145T_H172R_Q179E; L1 Q38R_Q124R_Q160K_T178R)
18 | -0.02 | 0.16 nM |  |  | D3H44 Fab heterodimer H L124E_L143D_K145T / L Q124K_V133G_S176R_T178R (H1L1 Fab of LCCA Set # 9229, 9225, 9228)
